{
  "source": "patent US20240209080A1",
  "about": "“FOLR1 BINDING AGENTS, CONJUGATES THEREOF AND METHODS OF USING THE SAME” (PROFOUNDBIO US CO., priority 2021, published 2024)",
  "molecules": {"B1": {"name": "F40: fully human anti-FOLR1 antibody (IgG1), VH SEQ ID NO:9, VL SEQ ID NO:10 (antibody, V domains shown)", "VH": "EVQLLESGGGVVQPGRSLRLSCAASGFTFSSYAMHWVRQAPGKGLEWVAVISYDGSNKYYADSVKGRFIISRDNSKNTVYLQMNSLRAEDTAVYYCARPTYVFTYTGSSFDYWGQGTQVTVSS", "VL": "DIQVTQSPSSLSASLGDTVSITCRASRGLTDSVAWYQQKPGQAPKLLIYAASTLQSGVPSRFGGSGSGSYFTLTITSLQPEDVATYYCQNYKSAPWTFGQGTKVEIK", "modifications": "Synthetic F40 VH amino acid sequence; Synthetic F40 VL amino acid sequence"}},
  "tested_on": "Hela cells",
  "assay": "Flow cytometry binding to Hela cells",
  "settings": "transfection supernatant, FIG. 1",
  "description": "The binding activity of the antibodies to Hela cells (ATCC® CCL-2, provided by COBIOER) and to RPTEC/TERT1 cells (ATCC® CRL-4031, provided by COBIOER) was tested by flow cytometry using the transfection supernatants. Briefly, target cells were digested with 0.02% EDTA-2Na, centrifuged at 1500 rpm for 3 mins, and resuspended with PBS. After counting, the cells were added to a 1.5 ml centrifuge tube with 1×10^6 cells per tube, centrifuged at 1500 rpm for 5 minutes, and the supernatant was discarded. Then all the operations were carried out on an ice bath. 100 μL of transfection supernatant was added to each 1.5 ml centrifuge tube. Blank cells, blank cells plus secondary antibody, medium and HEK293 supernatant were set up as the controls. The reaction was performed on an ice bath for 1 hour. Then the cells were pelleted and washed twice with PBS. The secondary antibody, goat anti-Human IgG (PE, abcam, ab98596), was diluted (1:200) and added using 100 μL per tube. The reaction was performed on an ice bath for 1 hour in the dark. The cells were pelleted again and washed twice with PBS, resuspended in 300 μL PBS, and FL2 fluorescence readings were measured by cytometry. The results were analyzed by FlowJoTM10 software.\nAnti-FOLR1 antibody binding to Hela and RPTEC/TERT1 cells was tested by FACS. The study was carried out as described above. […]",
  "data": [
    {"molecule": "B1", "values": [
      {"measurement": "Hela cell binding (in words)", "result": "weakly positive"}
    ]}
  ]
}
